Data reported in US20210380703A1.

What was measured:
[1] = molecular target: Human Fc (human); assay: ELISA, negative control
[2] = molecular target: human Fc (human); assay: ELISA, negative control

B1: 367_C01 (antibody, V domains shown)
VH: EVQLLESGGGLVQPGGSLRLSCAASGFTFDDYSMNWVRQAPGKGLEWVSGINYNGGYKSYADSVKGRFTISRDNSKNTLYLQMNSLRAEDTAVYYCARSANWHDTHLDYWGQGTLVTVSS
VL: DIQMTQSPSSLSASVGDRVTITCRASQSILTYLNWYQQKPGKAPKLVIYATTSLHSGVPSRFSGSGSGTDFTLTISSLQPEDFATYYCQQSYDTPLTFGGGTKVEIK
Question: Which optical density [1] does the source give for B1 here?
Answer: Its optical density is 0.348 OD.

B2: 367_C05 (antibody, V domains shown)
VH: EVQLLESGGGLVQPGGSLRLSCAASGFTFDDYGMNWVRQAPGKGLEWVSSINYNGGYTGYADSVKGRFTISRDNSKNTLYLQMNSLRAEDTAVYYCARSANWHDTHLDYWGQGTLVTVSS
VL: DIQMTQSPSSLSASVGDRVTITCRASQSILSYVNWYQQKPGKAPKLVIYAATSRHSGVPSRFSGSGSGTDFTLTISSLQPEDFATYYCQQSYDLPLTFGGGTKVEIK
Question: B2 was tested. Which optical density [1] did it give?
Answer: The optical density was 0.255 OD.

B3: 367_D10 (antibody, V domains shown)
VH: EVQLLESGGGLVQPGGSLRLSCAASGFTFDSYGMNWVRQAPGKGLEWVSNINYNGGYTSYADSVKGRFTISRDNSKNTLYLQMNSLRAEDTAVYYCARSANWHDTALDYWGQGTLVTVSS
VL: DIQMTQSPSSLSASVGDRVTITCRASQSIISYLNWYQQKPGKAPKLVIYAATSRASGVPSRFSGSGSGTDFTLTISSLQPEDFATYYCQQSYDTPLTFGGGTKVEIK
Question: With B3 as the binder, how does the optical density [1] read?
Answer: Its optical density is 0.251 OD.

B4: 367_E01 (antibody, V domains shown)
VH: EVQLLESGGGLVQPGGSLRLSCAASGFTFSSYGMNWVRQAPGKGLEWVAGINYNGGYKSYADSVKGRFTISRDNSKNTLYLQMNSLRAEDTAVYYCARSANWHDTALDYWGQGTLVTVSS
VL: DIQMTQSPSSLSASVGDRVTITCRASQSILSYVNWYQQKPGKAPKLLIYATTSRASGVPSRFSGSGSGTDFTLTISSLQPEDFATYYCQQSYDLPLTFGGGTKVEIK
Question: Which optical density [1] does the source give for B4 here?
Answer: The optical density was 0.351 OD.

B5: 367_E04 (antibody, V domains shown)
VH: EVQLLESGGGLVQPGGSLRLSCAASGFTFSDYSMNWVRQAPGKGLEWVSSINYNGGYKGYADSVKGRFTISRDNSKNTLYLQMNSLRAEDTAVYYCARSANWHDTHLDYWGQGTLVTVSS
VL: DIQMTQSPSSLSASVGDRVTITCRASQSILSYLNWYQQKPGKAPKLLIYAATSRASGVPSRFSGSGSGTDFTLTISSLQPEDFATYYCQQSYESPLTFGGGTKVEIK
Question: With B5 as the binder, how does the optical density [1] read?
Answer: Its optical density is 0.284 OD.

B6: 367_E09 (antibody, V domains shown)
VH: EVQLLESGGGLVQPGGSLRLSCAASGFTFSDYGMNWVRQAPGKGLEWVASINYNSGYKGYADSVKGRFTISRDNSKNTLYLQMNSLRAEDTAVYYCARSANWHDTALDYWGQGTLVTVSS
VL: DIQMTQSPSSLSASVGDRVTITCRASQSILSYLNWYQQKPGKAPKLVIYATTSRASGVPSRFSGSGSGTDFTLTISSLQPEDFATYYCQQSYETPLTFGGGTKVEIK
Question: How did the optical density [1] turn out when B6 was run?
Answer: Its optical density is 0.249 OD.

B7: 367_E11 (antibody, V domains shown)
VH: EVQLLESGGGLVQPGGSLRLSCAASGFTFDSYGMNWVRQAPGKGLEWVSSINYNSGYKGYADSVKGRFTISRDNSKNTLYLQMNSLRAEDTAVYYCARSANWHDTHLDYWGQGTLVTVSS
VL: DIQMTQSPSSLSASVGDRVTITCRASQSIVSYVNWYQQKPGKAPKLVIYAATSRHSGVPSRFSGSGSGTDFTLTISSLQPEDFATYYCQQSYDTPLTFGGGTKVEIK
Question: B7 was tested. Which optical density [1] did it give?
Answer: The optical density was 0.244 OD.

B8: 367_F03 (antibody, V domains shown)
VH: EVQLLESGGGLVQPGGSLRLSCAASGFTFSSYSMNWVRQAPGKGLEWVAGINYNSGYKSYADSVKGRFTISRDNSKNTLYLQMNSLRAEDTAVYYCARSANWHDTALDYWGQGTLVTVSS
VL: DIQMTQSPSSLSASVGDRVTITCRASQSILSYVNWYQQKPGKAPKLVIYAATSLASGVPSRFSGSGSGTDFTLTISSLQPEDFATYYCQQSDDTPLTFGGGTKVEIK
Question: How did the optical density [1] turn out when B8 was run?
Answer: The optical density was 0.301 OD.

B9: 367_F07 (antibody, V domains shown)
VH: EVQLLESGGGLVQPGGSLRLSCAASGFTFDSYGMHWVRQAPGKGLEWVANINYNGGYTGYADSVKGRFTISRDNSKNTLYLQMNSLRAEDTAVYYCARSANWHDTALDYWGQGTLVTVSS
VL: DIQMTQSPSSLSASVGDRVTITCRASQSIISYVNWYQQKPGKAPKLLIYAATSRASGVPSRFSGSGSGTDFTLTISSLQPEDFATYYCQQSYETPLTFGGGTKVEIK
Question: Which optical density [1] does the source give for B9 here?
Answer: The optical density was 0.242 OD.

B10: 367_G05 (antibody, V domains shown)
VH: EVQLLESGGGLVQPGGSLRLSCAASGFTFSDYGMNWVRQAPGKGLEWVANINYNGGYTSYADSVKGRFTISRDNSKNTLYLQMNSLRAEDTAVYYCARSANWHDTALDYWGQGTLVTVSS
VL: DIQMTQSPSSLSASVGDRVTITCRASQSIVSYLNWYQQKPGKAPKLVIYAATSLASGVPSRFSGSGSGTDFTLTISSLQPEDFATYYCQQSYDTPLTFGGGTKVEIK
Question: With B10 as the binder, how does the optical density [1] read?
Answer: The optical density was 0.283 OD.

B11: 367_G06 (antibody, V domains shown)
VH: EVQLLESGGGLVQPGGSLRLSCAASGFTFSSYGMNWVRQAPGKGLEWVSGINYNSGYKSYADSVKGRFTISRDNSKNTLYLQMNSLRAEDTAVYYCARSANWHDTHLDYWGQGTLVTVSS
VL: DIQMTQSPSSLSASVGDRVTITCRASQSILTYVNWYQQKPGKAPKLLIYATTSLHSGVPSRFSGSGSGTDFTLTISSLQPEDFATYYCQQSYDTPLTFGGGTKVEIK
Question: For B11, which optical density [1] is on record?
Answer: The optical density was 0.28 OD.

B12: 367_G10 (antibody, V domains shown)
VH: EVQLLESGGGLVQPGGSLRLSCAASGFTFDDYGMNWVRQAPGKGLEWVSGINYNGGYTSYADSVKGRFTISRDNSKNTLYLQMNSLRAEDTAVYYCARSANWHDTALDYWGQGTLVTVSS
VL: DIQMTQSPSSLSASVGDRVTITCRASQSIISYVNWYQQKPGKAPKLLIYAATSRASGVPSRFSGSGSGTDFTLTISSLQPEDFATYYCQQSYDSPLTFGGGTKVEIK
Question: With B12 as the binder, how does the optical density [1] read?
Answer: Its optical density is 0.286 OD.

B13: 373_E10 (antibody, V domains shown)
VH: EVQLLESGGGLVQPGGSLRLSCAASGFTFSDYSMNWVRQAPGKGLEWVSGINYNGGYTSYADSVKGRFTISRDNSKNTLYLQMNSLRAEDTAVYYCARGANWHDTALDYWGQGTLVTVSS
VL: DIQMTQSPSSLSASVGDRVTITCRASQSILTYVNWYQQKPGKAPKLVIYAATSRHSGVPSRFSGSGSGTDFTLTISSLQPEDFATYYCQQSYETPLTFGGGTKVEIK
Question: With B13 as the binder, how does the optical density [2] read?
Answer: The optical density was 0.188 OD.

B14: 373_F08 (antibody, V domains shown)
VH: EVQLLESGGGLVQPGGSLRLSCAASGFTFSSYSMNWVRQAPGKGLEWVSGINYNGGYTSYADSVKGRFTISRDNSKNTLYLQMNSLRAEDTAVYYCARGANWHDTALDYWGQGTLVTVSS
VL: DIQMTQSPSSLSASVGDRVTITCRASQSILTYLNWYQQKPGKAPKLLIYAATSRASGVPSRFSGSGSGTDFTLTISSLQPEDFATYYCQQSYDTPLTFGGGTKVEIK
Question: Which optical density [2] does the source give for B14 here?
Answer: Its optical density is 0.202 OD.

B15: 373_F11 (antibody, V domains shown)
VH: EVQLLESGGGLVQPGGSLRLSCAASGFTFDSYGMHWVRQAPGKGLEWVSGINYNSGYTSYADSVKGRFTISRDNSKNTLYLQMNSLRAEDTAVYYCARGANWHDTHLDYWGQGTLVTVSS
VL: DIQMTQSPSSLSASVGDRVTITCRASQSIVSYVNWYQQKPGKAPKLLIYAATSRASGVPSRFSGSGSGTDFTLTISSLQPEDFATYYCQQSYNLPLTFGGGTKVEIK
Question: B15 was tested. Which optical density [2] did it give?
Answer: Its optical density is 0.204 OD.

B16: 373_F12 (antibody, V domains shown)
VH: EVQLLESGGGLVQPGGSLRLSCAASGFTFSSYSMNWVRQAPGKGLEWVSNINYNGGYTGYADSVKGRFTISRDNSKNTLYLQMNSLRAEDTAVYYCARGANWHDTALDYWGQGTLVTVSS
VL: DIQMTQSPSSLSASVGDRVTITCRASQSISTYLNWYQQKPGKAPKLVIYAATSRASGVPSRFSGSGSGTDFTLTISSLQPEDFATYYCQQSYETPLTFGGGTKVEIK
Question: Which optical density [2] does the source give for B16 here?
Answer: Its optical density is 0.158 OD.

B17: 373_G08 (antibody, V domains shown)
VH: EVQLLESGGGLVQPGGSLRLSCAASGFTFDSYSMNWVRQAPGKGLEWVSNINYNGGYTSYADSVKGRFTISRDNSKNTLYLQMNSLRAEDTAVYYCARGANWHDTALDYWGQGTLVTVSS
VL: DIQMTQSPSSLSASVGDRVTITCRASQSILTYLNWYQQKPGKAPKLLIYAATSLASGVPSRFSGSGSGTDFTLTISSLQPEDFATYYCQQSYDSPLTFGGGTKVEIK
Question: For B17, which optical density [2] is on record?
Answer: The optical density was 0.172 OD.

B18: 373_H03 (antibody, V domains shown)
VH: EVQLLESGGGLVQPGGSLRLSCAASGFTFSSYSMNWVRQAPGKGLEWVSGINYNSGYKSYADSVKGRFTISRDNSKNTLYLQMNSLRAEDTAVYYCARGANWHDTALDYWGQGTLVTVSS
VL: DIQMTQSPSSLSASVGDRVTITCRASQSILSYLNWYQQKPGKAPKLLIYATTSRASGVPSRFSGSGSGTDFTLTISSLQPEDFATYYCQQSYENPLTFGGGTKVEIK
Question: B18 was tested. Which optical density [2] did it give?
Answer: The optical density was 0.172 OD.

B19: 373_H07 (antibody, V domains shown)
VH: EVQLLESGGGLVQPGGSLRLSCAASGFTFSSYSMNWVRQAPGKGLEWVAGINYNGGYTSYADSVKGRFTISRDNSKNTLYLQMNSLRAEDTAVYYCARGANWHDTHLDYWGQGTLVTVSS
VL: DIQMTQSPSSLSASVGDRVTITCRASQSIVTYLNWYQQKPGKAPKLLIYAASSLQSGVPSRFSGSGSGTDFTLTISSLQPEDFATYYCQQSYDSPLTFGGGTKVEIK
Question: With B19 as the binder, how does the optical density [2] read?
Answer: The optical density was 0.199 OD.

B20: 373_H09 (antibody, V domains shown)
VH: EVQLLESGGGLVQPGGSLRLSCAASGFTFSSYGMNWVRQAPGKGLEWVASINYNSGYKSYADSVKGRFTISRDNSKNTLYLQMNSLRAEDTAVYYCARGANWHDTHLDYWGQGTLVTVSS
VL: DIQMTQSPSSLSASVGDRVTITCRASQSIITYLNWYQQKPGKAPKLVIYAATSRASGVPSRFSGSGSGTDFTLTISSLQPEDFATYYCQQSDDSPLTFGGGTKVEIK
Question: For B20, which optical density [2] is on record?
Answer: The optical density was 0.166 OD.

B21: 374_A06 (antibody, V domains shown)
VH: EVQLLESGGGLVQPGGSLRLSCAASGFTFSSYSMNWVRQAPGKGLEWVSSINYNSGYTSYADSVKGRFTISRDNSKNTLYLQMNSLRAEDTAVYYCARGANWHDTHLDYWGQGTLVTVSS
VL: DIQMTQSPSSLSASVGDRVTITCRASQSILSYLNWYQQKPGKAPKLVIYAATSRASGVPSRFSGSGSGTDFTLTISSLQPEDFATYYCQQSYDSPLTFGGGTKVEIK
Question: For B21, which optical density [2] is on record?
Answer: The optical density was 0.173 OD.

B22: 374_A09 (antibody, V domains shown)
VH: EVQLLESGGGLVQPGGSLRLSCAASGFTFSSYSMNWVRQAPGKGLEWVSSINYNGGYKGYADSVKGRFTISRDNSKNTLYLQMNSLRAEDTAVYYCARGANWHDTHLDYWGQGTLVTVSS
VL: DIQMTQSPSSLSASVGDRVTITCRASQSILTYVNWYQQKPGKAPKLLIYAATSLASGVPSRFSGSGSGTDFTLTISSLQPEDFATYYCQQSYDSPLTFGGGTKVEIK
Question: With B22 as the binder, how does the optical density [2] read?
Answer: Its optical density is 0.231 OD.
